Laboratory results from ChEMBL document CHEMBL1250451, “Mechanistic insights into a Ca2+-dependent family of alpha-mannosidases in a human gut symbiont” (Nat Chem Biol, 2010).

What was measured:
Type in all cases: protein assay
[1] = substrate: O=[N+]([O-])c1ccc(O[C@H]2O[C@H](CO)[C@@H](O)[C@H](O)[C@@H]2O)cc1; experiment: Activity of Bacteroides thetaiotaomicron GH92 alpha-mannosidase 1032 assessed as mannose release after 16 hrs by HPLC
[2] = substrate: O=[N+]([O-])c1ccc(O[C@H]2O[C@H](CO)[C@@H](O)[C@H](O)[C@@H]2O)cc1; experiment: Ratio of Kcat to Km for Bacteroides thetaiotaomicron GH92 alpha-mannosidase 1032 assessed as mannose release after 16 hrs by HPLC
[3] = substrate: O=[N+]([O-])c1ccc(O[C@H]2O[C@H](CO)[C@@H](O)[C@H](O)[C@@H]2O)cc1; experiment: Activity of Bacteroides thetaiotaomicron GH92 alpha-mannosidase GH92 alpha-mannosidase 1878 assessed as mannose release after 16 hrs by HPLC
[4] = substrate: O=[N+]([O-])c1ccc(O[C@H]2O[C@H](CO)[C@@H](O)[C@H](O)[C@@H]2O)cc1; experiment: Ratio of Kcat to Km for Bacteroides thetaiotaomicron GH92 alpha-mannosidase GH92 alpha-mannosidase 1878 assessed as mannose release after 16 hrs by HPLC
[5] = substrate: O=[N+]([O-])c1ccc(O[C@H]2O[C@H](CO)[C@@H](O)[C@H](O)[C@@H]2O)cc1; experiment: Ratio of Kcat to Km for Bacteroides thetaiotaomicron GH92 alpha-mannosidase GH92 alpha-mannosidase 3130 assessed as mannose release after 16 hrs by HPLC
[6] = substrate: O=[N+]([O-])c1ccc(O[C@H]2O[C@H](CO)[C@@H](O)[C@H](O)[C@@H]2O)cc1; experiment: Activity of Bacteroides thetaiotaomicron GH92 alpha-mannosidase GH92 alpha-mannosidase 3130 assessed as mannose release after 16 hrs by HPLC
[7] = substrate: O=[N+]([O-])c1ccc(O[C@H]2O[C@H](CO)[C@@H](O)[C@H](O)[C@@H]2O)cc1; experiment: Ratio of Kcat to Km for Bacteroides thetaiotaomicron GH92 alpha-mannosidase GH92 alpha-mannosidase 3858 assessed as mannose release after 16 hrs by HPLC
[8] = substrate: O=[N+]([O-])c1ccc(O[C@H]2O[C@H](CO)[C@@H](O)[C@H](O)[C@@H]2O)cc1; experiment: Activity of Bacteroides thetaiotaomicron GH92 alpha-mannosidase GH92 alpha-mannosidase 3858 assessed as mannose release after 16 hrs by HPLC
[9] = substrate: O=[N+]([O-])c1ccc(O[C@H]2O[C@H](CO)[C@@H](O)[C@H](O)[C@@H]2O)cc1; experiment: Ratio of Kcat to Km for Bacteroides thetaiotaomicron GH92 alpha-mannosidase GH92 alpha-mannosidase 3963 assessed as mannose release after 16 hrs by HPLC
[10] = substrate: O=[N+]([O-])c1ccc(O[C@H]2O[C@H](CO)[C@@H](O)[C@H](O)[C@@H]2O)cc1; experiment: Activity of Bacteroides thetaiotaomicron GH92 alpha-mannosidase GH92 alpha-mannosidase 3963 assessed as mannose release after 16 hrs by HPLC
[11] = substrate: O=[N+]([O-])c1ccc(O[C@H]2O[C@H](CO)[C@@H](O)[C@H](O)[C@@H]2O)cc1; experiment: Ratio of Kcat to Km for Bacteroides thetaiotaomicron GH92 alpha-mannosidase GH92 alpha-mannosidase 2948 assessed as mannose release after 16 hrs by HPLC

B1: Alpha-1,2-mannosidase family protein (BT_1032) (Bacteroides thetaiotaomicron), Q8A8Y5 (protein)
chain: MRRILLTCTLAFTLLPVFGGEGKAPPMDKEKSLLIDYVDPFIGTTNFGTTNPGAVCPNGMMSVVPFNVMGSADNTYDKDARWWSTPYEHTNCFFTGYSHVNLSGVGCPELGSLLLMPTTGELNVDYKEYGSKYKDEQASPGYYSNYLTKYNIKTEVSATPRTGIARFTFPKGESHILLNLGEGLTNESGAMLRRVSDSEIEGMKLLGTFCYNPQAVFPIYFVMRVNKVPATTGYWKKQRPMTGVEAEWDRDQGKYKLYTRYGKEIAGDDVGAYFTFETEEGEQVEVQMGVSFVSIENARLNLDKEQSGKNFEQVLSDARAQWNDDLSRITVEGGTDAQKTVFYTALYHLLIHPNVLQDVNGEYPAMESDQILTTKGTRYTVFSLWDTYRNVHQLLTLVYPERQMEMVRTMLDMYREHGWFPKWELYGRETLTMEGDPSIPVIVDTWMKGLRDFDVDLAYEAMYKSATLPGAENLMRPDNDDYMSKGYVPLREQYDNSVSHALEYYIADFALSRFADALGKKKDAEMFYKRSLGYKHYYSKEFGTFRPILPDGTFYSPFNPRQGENFEPNPGFHEGNSWNYTFYVPHDVYGLAKLMGGKKPFVNKLQMVFDEGLYDPANEPDIAYAHLFSYFKGEEWRTQKETQRLLDKYFTTKPDGIPGNDDTGTMSAWAIFNMIGFYPDCPGLPEYALTTPVFNKVTIRLDPKWYKENELVIESNRTGSETLYINKVLLDGKKFNKYRITHDELVHGKRLIFDLK
Km [1]: 1700 µM | kcat [1]: 0.006 s⁻¹ | kcat/Km [2]: 3.5 M⁻¹ s⁻¹

B2: Alpha-1,2-mannosidase (BT_1878) (Bacteroides thetaiotaomicron), Q8A6K3 (protein)
chain: MIIMKRKSPVMAVALAGLFMYTSCSPTEQAETKDYTQYVNTFIGAADNGHTFPGACYPFGMIQTSPVTGAVGWRYCSEYTYQDSLIWGFTQTHLNGTGCMDLGDILVMPVTGTRARAWDAYRSHFPKDKEAATPGYYTVELSDPQVKAELTASIHAALHRYTYHKADSASLLIDLQHGPAWREEQYHSQVNSCEVNWEDAQTLAGHVNNTVWVDQDYFFVMKFNRPVIDSLYLPMGETEKGKRIIATFDLKPGDELMMKVALSTTSVEGAKKNLQAEIPDWNFDGVKLAAHDEWNSYLSRMDVEGTDDEKTNFYTCFYHALIQPNQISDVDGMYRNAADSIVKAGTGTFYSTFSLWDTYRAAHPFYTLMVPERVDDFVNSLIEQGEVQGFLPIWALWGKENFCMIGNHGVSVIAEAYRKGFRGFDAERAFNMVKKTQTVSHPLKSDWEVYTKYGYFPTDLTKAESVSSTLESVYDDYAAADMARRMGKEEDAAYFAKRADYYKNLFDSQTNFMRPRKADGTWKSPFNPSDVGHAESTGGDYTEGNAWQYTWHVQHDVPGLIALFGGEEPFLNKLDSLFTVKLETTQADVTGLIGQYAHGNEPSHHVTYLYALAGRPERTQELIREIFDTQYKNKPDGLCGNDDCGQMSAWYMFSAMGFYPVDPVSGDYVFGAPQLPKIVLHLADGKTFTVIAENLSKEHKYVDSITLNGEPYTKNTISHEDILKGGTLVYKMK
Km [3]: 900 µM | kcat [3]: 0.00133 s⁻¹ | kcat/Km [4]: 1.48 M⁻¹ s⁻¹

B3: Alpha-1,2-mannosidase, putative (BT_3130) (Bacteroides thetaiotaomicron), Q8A325 (protein)
chain: MKKLLLSVCAFSLTLATLQAGEITKYVNPFIGTGAIDGGLSGNNYPGATSPFGMIQLSPDTSEAPNWGDASGYDYNRNTIFGFSHTRLSGTGASDLIDITLMPTSSGRTSSAFTHDEEKARPGYYQVMLKDENINAELTTTQRNGIHRYQYPAGKDAEIILDMDHSADKGSWGRRIINSQIRILNDHAVEGYRIITGWAKLRKIYFYMEFSSPILTSTLRDGGRVHENTAVINGTNLHGCFRFGQLNGKPLTCKVALSSVSMENARQNMEQEAPHWDFDRYVAAADADWEKQLGKIEVKGTEVQKEIFYTALYHTMIQPNTMSDVNGEYMAADYTTRKVANNETHYTTFSLWDTFRASHPLYTLLEPERVTDFVKSMIRQYEYYGYLPIWQLWGQDNYCMIGNHSIPVITDAILKGIPGIDMEKAYEAVYNSSVTSHPNSPFEVWEKYGFMPENIQTQSVSITLEQAFDDWCVAQLAAKLNKDADYQRFHKRSEYYRNLFHPKTKFFQSKNDKGEWIEPFDPYQYGGNGGHPFTEGNAWQYFWYVPHNIQALMELTGGTKAFEQKLDTFFTSTYKSEQMNHNASGFVGQYAHGNEPSHHVAYLYNFAGQPWKTQKYVSHILNTLYNNTSSGYAGNDDCGQMSAWYVFSAMGFYPVNPADGRYIIGSPLLDECTLKLAGNKEFRIRTIRKSPEDIYIQSVTLNGKKHKDFFITHQDIMNGGTMVFKMGKKPSGWGK
kcat/Km [5]: 112000 M⁻¹ s⁻¹ | Km [6]: 510 µM | kcat [6]: 56.7 s⁻¹

B4: Alpha-1,2-mannosidase (BT_3858) (Bacteroides thetaiotaomicron), Q8A113 (protein)
chain: MMMNRLNIKRTVGSCLMAMAFFSCTHTDQTPTKDFVDYVNPYIGNISHLLVPTYPTVHLPNSMLRVYPERGDYTSDRVNGLPVVVTSHRGSSAFNLSPVQGEVSRPIVSYSYDLENITPYSYSVYLDEADIQVEYAPSHQAGIYHISFGTEGDNALVVNTKNGKLVAEEKGVSGYQVIDNTPTKIYLYLETSQLPLRKGVLADGKVDMESKEGSAIALYYGSEKNLNLRYGISFISAEQAKKNLQRDITTYDVKAVADAGRRIWNKTLGKIVIEGGSEDEKEIFYTSLYRTYERMINLSEDGKYYSAFDGKIHEDGGVPFYTDDWIWDTYRATHPLRILIEPQKELDMIRSYIRMAEQSDRRWMPTFPEVTGDSHRMNGNHAVAVIWDAYCKGLKDFDLEAAYEACKGAITEKTLLPWLRCPLTELDKFYQEKGFFPALNPGEEETCKAVHSFERRQAVAVMLGNCYDNWCLAQIARTLNKTDDYKKFMRMSYTYRNVYNAETGFFHPKNKDGKFIEPFDYRYSGGQGARGYYGENNGWIYRWDVQHNPADLIALMGGQASFIERLNQTFNEPLGRSKFDFYHQLPDHTGNVGQFSMANEPCLHIPYLYNYAGQPWMTQKRIRVLLNQWFRNDLMGVPGDEDGGGMTAFVVFSMMGFYPVTPGSPTYNIGSPVFQSAKMEVGDGHYFEIIAENYAPDHKYIQSATLNGTPWNKPWFSHADIQNGGRLVLQMGDKPNKKWGIASDAVPPSSESLPE
kcat/Km [7]: 1.57 M⁻¹ s⁻¹ | Km [8]: 270 µM | kcat [8]: 0.000417 s⁻¹

B5: Glycoside hydrolase family 92 (BT_3963) (Bacteroides thetaiotaomicron), Q8A0Q8 (protein)
chain: MNKMKKKVLMMTMAAVTLSAVAQQPVDYVNPIIGTNGMGHTFPGACTPFGWVQLSPDTDTIPHNVNGAYQKNAYEYCAGYQYRDKTIVGFSHTHLSGTGHSDLGDILLMPAVGDVKLNPGRADHPEEGYRSRFDHATEKATPGYYEVMLDDYGIKAQLTATQRTGVHKYTFPKGKDGHLILDLVHGIYNYDGKVLWANLRVENDTLLTGYRITNGWARTNYTYFAISLSQPIKDYGYKDKEKVLYNGFWRRFKLEKNFPEITGRKIVAYFNFETAKDPELVVKVALSAVSTEGAVKNLRAEASGKSFEQLAEAARTDWNNELDHFEIEGTPDQKAMFYTSLYHTMINPSVYMDVDGSYRGLDHNIHQAKGFTNYTIFSLWDTYRAEHPFLNLVKPERNADMVESMIKHEQQSVHGMLPIWSLMGNENWCMSGYHAVSVLADAITKGVFSNVDEALSAMVSTSTVPYYEGVADYMKLGYIPLDKSGTAASSTLEYAYDDWTIYQTALKAGNKEIADTYRKRALNYRNIYDTSIGFARPRYSDGTFKKEFDVLQTYGEGFIEGNSWNFSFHVPHDVFGMIDLMGGEKTFVQKLDELFSMHLPEKYYEHNEDITEECLVGGYVHGNEPSHHVPYLYAWTSQPWKTQYWLREILNKMYKNDINGLGGNDDCGQMSAWYLFSVMGFYPVCPGTDQYVLGAPYLPYLKLTLPNGKTLEIKAPGVSDKKRYVQSLKLNGESYDKMYITHEDILKGGVLEFKMSASPNKRRGVSVQDKPYSLTNGIN
kcat/Km [9]: 0.567 M⁻¹ s⁻¹ | Km [10]: 790 µM | kcat [10]: 0.00045 s⁻¹

B6: Alpha-1,2-mannosidase (BT_2948) (Bacteroides thetaiotaomicron), Q8A3K6 (protein)
chain: MKMKLLILAVLPFLTPINMNSQEEKASWVQYVNPLIGTEVWQSGVAVAGHEDPSGYTFPGVTEPFGMTEWTAHTLESKHAGTLHHRVPYWYKHNYISGFMGTHYPSGAVMFDYGAVELMPVVGQLKCRPEERSSSFTHITEKSKPHFYEVMLDDYQVKAQLSATKTSAILQFTYPQSDSAYVVVDAMPSMFTAGAPGYIHIDPVRKEISGKSIQSARGYRETGYFVVRFDKDFDSFGTFNLNNDYPEVIEEKYLFTQKEGKWVNGLKGIYTQDSKGVGHLRSEKIDPVIDFDWDWYKPADDFSFNDYQVTWSGKLKAPSTGEYTLGIQADDGARLYINGELLIDDWKSHSFSYQPTQKKISLEAGKMYDIKLEYYQHEWSSRIKLSWIRPDKKSSTSLLTGNRHLESSTKIGGYIRFKTGKNEVIKAIVGTSFISVEQARINLEREIGAKSMETISAQTEALWNKELSVIDLPGATEQDKIVFYTALYHSFLLPRSLSEDGKYRSPFDGKVHKGISFTDYSIWDTFRATHPLFVLLKPDFAGDLITGLLHAYDEGGWLPKWPNPGYTNCMMGTHSDAIIADAYVKGVRNFDVEKAKKAVLKNAYEKGNHIAWGRLGIMDYERLGYVPVDKYGESVARTMEFAYDDYCLSRFFAEKGEPDLSDKLGKRSKNFRNVLDKETKMVRARKADGSWSNPEDYDISVWSGFNPKGVYNYKKNYTLFVPHDVPELIRFLGGTDSLAVFMDELFDKDIYYVGDEFVMHAPYMYNLCKRPWMTQKRIYDIVNKYYLPTPSGLPGNDDCGQLSSWYIFSAMGFYPMCPASIEYQLGVPCLPGFVLHLPQNRTFTIKTKNFGKGNCYVRAVYLNGKPHRSSVITHSDIINGGEILFELTDKPAYNWFQ
kcat/Km [11]: 42.7 M⁻¹ s⁻¹
